From publication PMC8597827, “The effect of S427F mutation on RXRα activity depends on its dimeric partner†”

Target: RXRα WT (human, UniProt P19793 1-462)
Test: EMSA; no ligand; two shifts; competed by 5x and 25x unlabeled DR1; 10 mM Tris HCl pH 8.0, 150 mM KCl, 0.5 mM EDTA, 0.1% Triton X-100, 12.5% glycerol, 0.2 mM DTT, 1 ug poly(dI-dC), 100 pmol probe in 20 uL; 10 min RT then 5 min 37 C; 5% PAGE in 0.5x TBE at 4 C
Conditions: protein: recombinant; chain copies: 2; blunt

Chain of RXRα WT (P19793 whole entry): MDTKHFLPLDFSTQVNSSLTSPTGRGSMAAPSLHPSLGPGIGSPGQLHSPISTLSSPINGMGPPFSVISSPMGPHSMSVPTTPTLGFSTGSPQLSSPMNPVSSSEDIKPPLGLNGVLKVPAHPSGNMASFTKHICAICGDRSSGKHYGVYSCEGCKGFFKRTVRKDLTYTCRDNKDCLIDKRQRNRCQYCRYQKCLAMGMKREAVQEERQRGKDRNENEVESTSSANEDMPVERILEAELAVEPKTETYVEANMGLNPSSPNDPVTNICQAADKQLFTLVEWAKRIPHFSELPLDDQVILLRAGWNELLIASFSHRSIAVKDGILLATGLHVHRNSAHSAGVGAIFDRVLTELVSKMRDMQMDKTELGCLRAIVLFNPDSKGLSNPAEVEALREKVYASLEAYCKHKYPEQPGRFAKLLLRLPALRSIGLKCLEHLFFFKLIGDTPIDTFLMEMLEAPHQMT

B1: DR1 (dsDNA)
DNA 1: TCGAGGGTAGGGGTCAGAGGTCACTCGTCGA
DNA 2: TCGACGAGTGACCTCTGACCCCTACCCTCGA
  binding result: binds
